Assay results taken from patent publication US7176008.

T1: Biotinyl-EACA-EACA-Gly-Leu-Met-Val-Gly-Gly-Val-Val-Arg-OH
T1 chain: GLMVGGVVR

B1: human carboxypeptidase B (protein)
chain: ATGHSYEKYNKWETIEAWTQQVATENPALISRSVIGTTFEGRAIYLLKVGKAGQNKPAIFMDCGFHAREWISPAFCQWFVREAVRTYGREIQVTELLDKLDFYVLPVLNIDGYIYTWTKSRFWRKTRSTHTGSSCIGTDPNRNFDAGWCEIGASRNPCDETYCGPAAESEKETKALADFIRNKLSSIKAYLTIHSYSQMMIYPYSYAYKLGENNAELNALAKATVKELASLHGTKYTYGPGATTIYPAAGGSDDWAYDQGIRYSFTFELRDTGRYGFLLPESQIRATCEETFLAIKYVASYVLEHLY
B2: activated thrombin-activatable fibrinolysis inhibitor (human TAFIa) (protein)
chain: ASASYYEQYHSLNEIYSWIEFITERHPDMLTKIHIGSSFEKYPLYVLKVSGKEQAAKNAIWIDCGIHAREWISPAFCLWFIGHITQFYGIIGQYTNLLRLVDFYVMPVVNVDGYDYSWKKNRMWRKNRSFYANNHCIGTDLNRNFASKHWCEEGASSSSCSETYCGLYPESEPEVKAVASFLRRNINQIKAYISMHSYSQHIVFPYSYTRSKSKDHEELSLVASEAVRAIEKISKNTRYTHGHGSETLYLAPGGGDDWIYDLGIKYSFTIELRDTGTYGFLLPERYIKPTCREAFAAVSKIAWHVIRNV
B3: human soluble carboxypeptidase M (protein)
chain: LDFNYHRQEGMEAFLKTVAQNYSSVTHLHSIGKSVKGRNLWVLVVGRFPKEHRIGIPEFKYVANMHGDETVGRELLLHLIDYLVTSDGKDPEITNLINSTRIHIMPSMNPDGFEAVKKPDCYYSIGRENYNQYDLNRNFPDAFEYNNVSRQPETVAVMKWLKTETFVLSANLHGGALVASYPFDNGVQATGALYSRSLTPDDDVFQYLAHTYASRNPNMKKGDECKNKMNFPNGVTNGYSWYPLQGGMQDYNYIWAQCFEITLELSCCKYPREEKLPSFWNNNKASLIEYIKQVHLGVKGQVFDQNGNPLPNVIVEVQDRKHICPYRTNKYGEYYLLLLPGSYIINVTVPGHDPHITKVIIPEKSQNFSALKKDILLPFQGQLDSIPVSNPSCPMIPLYRNLPDHS

Molecular target: T1, Biotinyl-EACA-EACA-Gly-Leu-Met-Val-Gly-G …

Protein	Km	Km (37° C.)	Km (room temperature)
B1	Values of Km for TAFIa and CPB were 8 and 12 µM, respectively	–	–
B2	Values of Km for TAFIa and CPB were 8 and 12 µM, respectively	–	–
B3	–	the value was much higher (>50 µM) at 37 °C	Km for CPM was 38 µM at room temperature
